According to US20040170601A1, “Method of improving the growth performance of an animal” (priority 2001, published 2004):
“Also recorded” adds a separate entry of the source.

Key:
eosinophils = test: Example 5: haematology, eosinophil levels; design: species or system pigs; conditions: pig, in vivo
Protocol: Pigs were weaned and weighted at the start of the experiment (D0, W0) and weekly until the end of the weaner period (W6), at the end of the grower (W13) and finisher (W19) stages and once during the grower (W9) and finisher (W16) stages. Blood and sera samples were collected at the start (before treatments) and end of the weaner, grower and finisher periods. Blood and sera were taken prior to treatment injection. Haematology (totals and differentials) was performed.
Haematology and differentials were undertaken at various time points during the trial. There were no significant changes between groups for these parameters except for eosinophil levels (FIG. 41).

[1] = test system: Brachyspira (Serpulina) hyodysenteriae; test: Example 7: swine dysentery challenge, IL-5 prophylactic; assay type: in vivo, pigs; design: reduction in the number of spirochaetes compared to saline treated pigs: concentration or dose not given beside the values
From the text: One aim of this example was to determine whether IL-5 could improve the health of pigs infected with an enteric inflammatory pathogen causing swine dysentery, Brachyspira (Serpulina) hyodysenteriae. A further aim was to determine whether IL-5 could improve the growth rate of pigs under conditions of challenge with swine dysentery.
Male pigs with a mean starting weight of 6.5 kg, were allocated to treatment groups consisting of eight pigs (Table 6). Pigs were housed in group pens, with each pen containing a replicate from each of the treatment groups. One group of 8 pigs was housed in a separate room and left uninfected to act as untreated controls. Pigs were provided with pelleted feed and water ad libitum.
Prior to swine dysentery challenge, pigs were treated with recombinant IL-5 or saline, as described in Table 6. Cytokines and the antibiotic, Lincomycin, were delivered by intramuscular injection at intervals outlined in Table 7. Pigs were infected with Brachyspira hyodysenteriae at day 0, day 1 and day 2, given as an oral bolus of 120 ml of spirochaete culture in log phase of growth, containing approximately […].
Faecal swabs and blood samples were taken from each pig at intervals described in Table 7. Faecal swabs were cultured for the presence of spirochaetes. Blood samples were assayed for immunological parameters as described in example 1 above. Pigs were weighed at weekly intervals throughout the experiment, which was terminated by euthanasia on days 19 and 20 after the initial challenge. At post mortem swabs from areas of the hindgut were cultured for the presence of spirochaetes, and the gross pathological condition of the gastro-intestinal tissue noted.

[2] = Example 4: growth performance of pigs administered IL-5 in a commercial piggery; assay type: in vivo; design: average weight, higher than saline medicated controls / rate of gain (ROG), increase over saline medicated control / increase in total weight compared to saline medicated control group / increase in weight gain compared to saline medicated control group / increase in average weight compared to saline medicated control group: concentration or dose not given beside the values
Protocol: This trial evaluated the capacity of IL-5 to improve growth performance and immunity of pigs by comparing the growth rate and health of weaner pigs (28 day old weaners is Day 0 of the trial and the weaner period continued for 42 days) through to the finisher stage (Days 93 to 113) and slaughter (133 days after commencing the trial). The pigs were administered recombinant porcine cytokine, IL-5, and saline was used as a control, with and without standard weaner medicated water and feed in a commercial piggery environment.
40 pigs per treatment mixed in-groups of 20, with 4 replicates containing standard medicated water and feed and 4 replicates without medicated feed or water.
Overall weights for each group at the start of the experiment were equivalent. All pigs at the start of the trial (Day 0) were 28 day old male weaners.
IL-5 was provided in saline to inject one ml/pig.
Weights were measured at the start, weekly and at end of the experiment. The original proposal was designed for measuring weight over the weaner period; however, due to significant growth responses with IL-5 administration the measurement of weight continued to slaughter (pigs were 161 days old).
Recombinant porcine IL-5 was expressed in E. coli and purified using a polyHis tag system as described in Qiagen Inc, USA, instructions and Clontech, USA, Talon Manual instructions. IL-5 was tested for biological activity in a bioassay prior to the start of the experiment.
At the start of the trial, the mean weights and variance for each group were equalised. Thus, the increase in total or average weights witnessed in the IL-5 medicated group was due to IL-5 administration and not simply due to differences between weights at the start of the trial.

[3] = end of the treatment period, 1st trial, IL-5 plus medication

B1: interleukin 5 (protein, UniProt Q9MYM5 22-134, looked up)
Interleukin-5: VENTMNRLVAETLTLLSIHRTLLIGDGNLMISTPVHTNHQLCIEEVFQGIDTLKNQTARGDAVEKLFQNLSLIKEYIDRQKKNCGGERWRVTQFLDYLQVFLGVINTEWTMES
notes: recombinant porcine IL-5 protein expressed in E. coli; + / − = with / without antibiotic medicated feed and water, +p = weaner period only
eosinophils
  levels of eosinophils in blood (absolute numbers and differentials): significantly increased the levels of eosinophils in blood
[1]; after challenge
  spirochaete shedding in faeces (faecal culture): decreasing levels of spirochaete shedding by day 14 after challenge
[1]; anterior colon, post mortem
  reduction in the number of spirochaetes compared to saline treated pigs: 63%
[1]; caecum, post mortem
  reduction in the number of spirochaetes compared to saline treated pigs: 60%
[1]; faecal, post mortem
  reduction in the number of spirochaetes compared to saline treated pigs: 68%
[1]; pig, in vivo
  number of spirochaetes cultured from the hindgut at post mortem: reduced the number of spirochaetes residing in the gut compared to saline controls; also recorded: comparable to that shown by the Lincocin antibiotic
[1]; post mortem
  incidence of clinical signs in faeces (of 8 pigs): 3 pigs
[1]; posterior colon, post mortem
  reduction in the number of spirochaetes compared to saline treated pigs: 47%
[2]; IL-5 medicated group
  consistency of growth performance (individual weights at end of weaner period): more consistent than all other groups
[2]; IL-5 medicated group, Week 1
  average weight, higher than saline medicated controls: 5.5%
  rate of gain (ROG), increase over saline medicated control: 45.6%
  total combined group weight, higher than saline medicated group: 5.5%
[2]; IL-5 medicated group, Week 2
  average weight, higher than saline medicated controls: 6.3%
  rate of gain (ROG), increase over saline medicated control: 19.6%
  total combined group weight, higher than saline medicated group: 6.3%
[2]; IL-5 medicated group, Week 3
  average weight, higher than saline medicated controls: 8.8%
  rate of gain (ROG), increase over saline medicated control: 18.2%
  total combined group weight, higher than saline medicated group: 8.8%
[2]; IL-5 medicated group, Week 4
  average weight, higher than saline medicated controls: 5.5%
  rate of gain (ROG), increase over saline medicated control: 8.8%
  total combined group weight, higher than saline medicated group: 11.1%
[2]; IL-5 medicated group, Week 5
  average weight, higher than saline medicated controls: 7.8%
  rate of gain (ROG), increase over saline medicated control: 11.3%
  total combined group weight, higher than saline medicated group: 13.4%
[2]; IL-5 medicated group, Week 6
  average weight, higher than saline medicated controls: 6.8%
  rate of gain (ROG), increase over saline medicated control: 9.1%
  total combined group weight, higher than saline medicated group: 18.6%
[2]; IL-5 un-medicated group vs un-medicated saline controls
  average weights during weaner period: consistently small increase in average weights over the un-medicated saline controls except for the last week
[2]; [3]
  increase in average weight compared to saline medicated control group: 7%
  increase in total weight compared to saline medicated control group: 18%
  increase in weight gain compared to saline medicated control group: 9%
[2]; medicated
  average weights of individual pigs during trial: consistently higher average weights than all other groups
  increase of average warm carcass weight over the medicated saline control: 6 kg
  rate of gain over the weaner period: consistently increased the rate of gain in the medicated pigs
  total weights of all pigs in group over the entire production period: significant increase in total weights compared to all other groups
[2]; medicated with antibiotics, vs saline controls
  warm carcass weight: increased warm carcass weight compared to saline controls when pigs were medicated with antibiotics
[2]; medicated, all pigs of group
  individual final weights: above 90 kg
[2]; over 6 weeks for a group of 20 pigs, medicated
  total combined group weight above saline medicated group: 89 kg
[2]; un-medicated
  rate of gain over the weaner period: generally higher than the un-medicated saline control
[2]; up to slaughter
  variation in individual pig weights: reduced variation in individual pig weights up to slaughter
[2]; with or without antibiotics, vs saline controls
  dressing percentage of carcasses at slaughter: improved dressing percentage regardless of antibiotic administration; also recorded: significantly higher % dressing than the respective saline controls
